Source: paper PMC10698284, “SLC3A2 N-glycosylation and Golgi remodeling regulate SLC7A amino acid exchangers and stress mitigation” (The Journal of Biological Chemistry, 2023)

Key:
[1] = biological target: T1, FLAG-SLC3A2 N365D (human, UniProt P08195-1 66-630, N365D, N-glycosylated; N-glycosylation site N365 deleted); test: affinity purification with mass spectrometry; anti-FLAG M2 agarose, 4 h at 4 °C, 1 mg lysate (0.5% NP40, 50 mM HEPES pH 8.0, 100 mM KCl, 1 mM EDTA, 10% glycerol) of HeLa Flp-In T-REx SLC3A2 KO cells with dox-induced FLAG-SLC3A2 WTseq or site variants; on-bead trypsin digest, DDA and SWATH; control: dox-treated SLC3A2 KO cells; in some samples 10 μM fluvastatin or 250 ng/ml swainsonine for the final 24 h; details: partners not purified
T1 construct: SLC3A2 (4F2hc, CD98), human, cDNA encoding amino acids 66 to 630 of isoform P08195-1, with N365D; also called N365D site variant; source: HeLa Flp-In T-REx SLC3A2 KO cells, dox-induced from the Flp-In site; in lysate (AP-MS) or on the cell surface, then lysed (Gal3 co-IP); not shown: FLAG, N-terminal, kept
T1 sequence (looked up): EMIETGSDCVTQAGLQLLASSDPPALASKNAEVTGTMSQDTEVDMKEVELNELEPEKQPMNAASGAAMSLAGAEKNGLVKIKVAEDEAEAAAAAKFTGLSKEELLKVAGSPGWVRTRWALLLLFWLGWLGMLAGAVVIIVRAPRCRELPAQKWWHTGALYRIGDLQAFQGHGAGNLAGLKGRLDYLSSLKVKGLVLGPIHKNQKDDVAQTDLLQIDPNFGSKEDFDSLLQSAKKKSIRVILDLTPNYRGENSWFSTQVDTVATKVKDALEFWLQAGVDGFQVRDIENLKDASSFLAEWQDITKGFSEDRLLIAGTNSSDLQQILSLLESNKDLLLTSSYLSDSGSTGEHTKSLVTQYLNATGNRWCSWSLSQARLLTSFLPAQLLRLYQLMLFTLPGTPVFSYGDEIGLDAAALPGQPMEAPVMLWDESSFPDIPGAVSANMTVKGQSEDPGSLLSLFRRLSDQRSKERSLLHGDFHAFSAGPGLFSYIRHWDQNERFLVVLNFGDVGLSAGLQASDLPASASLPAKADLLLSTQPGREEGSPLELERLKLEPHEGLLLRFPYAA

[2] = biological target: T2, FLAG-SLC3A2 N381D (human, UniProt P08195-1 66-630, N381D, N-glycosylated; N-glycosylation site N381 deleted); test: as above; details: partners not purified
T2 construct: SLC3A2 (4F2hc, CD98), human, cDNA encoding amino acids 66 to 630 of isoform P08195-1, with N381D; also called N381D site variant; source: HeLa Flp-In T-REx SLC3A2 KO cells, dox-induced from the Flp-In site; in lysate (AP-MS) or on the cell surface, then lysed (Gal3 co-IP); not shown: FLAG, N-terminal, kept
T2 sequence (looked up): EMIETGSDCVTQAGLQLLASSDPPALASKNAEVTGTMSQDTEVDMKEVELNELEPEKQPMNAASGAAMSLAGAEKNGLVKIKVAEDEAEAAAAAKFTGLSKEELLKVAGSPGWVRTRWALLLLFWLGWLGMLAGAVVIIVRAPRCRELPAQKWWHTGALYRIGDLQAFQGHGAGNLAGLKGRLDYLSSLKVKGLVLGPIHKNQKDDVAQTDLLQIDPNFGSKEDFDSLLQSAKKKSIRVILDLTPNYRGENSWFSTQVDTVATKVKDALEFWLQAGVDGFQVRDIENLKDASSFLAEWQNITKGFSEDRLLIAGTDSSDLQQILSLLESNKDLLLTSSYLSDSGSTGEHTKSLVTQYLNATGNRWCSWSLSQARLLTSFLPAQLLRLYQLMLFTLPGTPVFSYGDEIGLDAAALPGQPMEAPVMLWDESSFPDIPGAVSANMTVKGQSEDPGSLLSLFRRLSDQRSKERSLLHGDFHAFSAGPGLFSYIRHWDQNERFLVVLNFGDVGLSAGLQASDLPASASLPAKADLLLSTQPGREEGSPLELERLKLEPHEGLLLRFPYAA

Sequence of SLC7A5 (Q01650 whole entry): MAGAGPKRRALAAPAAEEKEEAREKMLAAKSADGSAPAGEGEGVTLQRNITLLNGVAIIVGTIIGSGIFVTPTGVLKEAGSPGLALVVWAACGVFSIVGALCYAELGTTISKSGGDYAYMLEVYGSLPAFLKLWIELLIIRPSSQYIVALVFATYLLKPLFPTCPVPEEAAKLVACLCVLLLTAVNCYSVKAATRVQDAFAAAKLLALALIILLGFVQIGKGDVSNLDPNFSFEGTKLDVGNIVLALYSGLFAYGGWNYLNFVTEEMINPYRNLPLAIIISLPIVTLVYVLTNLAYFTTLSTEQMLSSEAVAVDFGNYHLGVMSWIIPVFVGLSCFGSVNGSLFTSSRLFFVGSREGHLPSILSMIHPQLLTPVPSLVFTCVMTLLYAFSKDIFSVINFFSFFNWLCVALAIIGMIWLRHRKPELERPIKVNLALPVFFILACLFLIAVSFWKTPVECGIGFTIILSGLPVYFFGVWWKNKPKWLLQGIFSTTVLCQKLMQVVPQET

| Binder | percent decrease of the interaction against WTseq [1] | percent decrease of the interaction against WTseq [2] |
| --- | --- | --- |
| SLC7A11 (natural protein, human (endogenous in HeLa), UniProt Q9UPY5 1-501, looked up, SLC7A11, human, endogenous in HeLa cells, found by its tryptic peptides; Forms a disulfide-linked heterodimer with SLC3A2; source: endogenous, HeLa lysate) MVRKPVVSTISKGGYLQGNVNGRLPSLGNKEPPGQEKVQLKRKVTLLRGVSIIIGTIIGAGIFISPKGVLQNTGSVGMSLTIWTVCGVLSLFGALSYAELGTTIKKSGGHYTYILEVFGPLPAFVRVWVELLIIRPAATAVISLAFGRYILEPFFIQCEIPELAIKLITAVGITVVMVLNSMSVSWSARIQIFLTFCKLTAILIIIVPGVMQLIKGQTQNFKDAFSGRDSSITRLPLAFYYGMYAYAGWFYLNFVTEEVENPEKTIPLAICISMAIVTIGYVLTNVAYFTTINAEELLLSNAVAVTFSERLLGNFSLAVPIFVALSCFGSMNGGVFAVSRLFYVASREGHLPEILSMIHVRKHTPLPAVIVLHPLTMIMLFSGDLDSLLNFLSFARWLFIGLAVAGLIYLRYKCPDMHRPFKVPLFIPALFSFTCLFMVALSLYSDPFSTGIGFVITLTGVPAYYLFIIWDKKPRWFRIMSEKITRTLQIILEVVPEEDKL | 67 ± 15% | 67 ± 15% |
| SLC7A5 (natural protein, SLC7A5, human, endogenous in HeLa cells, found by its tryptic peptides; Forms a disulfide-linked heterodimer with SLC3A2; also called SLC7A5 exchanger; source: endogenous, HeLa lysate) not shown | 44 ± 14% | 44 ± 14% |
